Molecular target: Mycobacterium thermoresistible (Mth) IMPDH ΔCBS (Mycobacterium thermoresistible)
Experiment: crystal structure

## Mycobacterium thermoresistible (Mth) IMPDH ΔCBS (enzyme)
  stoichiometry N: 4
